Measured values published in paper PMC5179221 (2017).

Biological target: NCoR peptide (Homo sapiens, UniProt O75376)
Experiment: fluorescence polarization

Chain of NCoR peptide (O75376 whole entry): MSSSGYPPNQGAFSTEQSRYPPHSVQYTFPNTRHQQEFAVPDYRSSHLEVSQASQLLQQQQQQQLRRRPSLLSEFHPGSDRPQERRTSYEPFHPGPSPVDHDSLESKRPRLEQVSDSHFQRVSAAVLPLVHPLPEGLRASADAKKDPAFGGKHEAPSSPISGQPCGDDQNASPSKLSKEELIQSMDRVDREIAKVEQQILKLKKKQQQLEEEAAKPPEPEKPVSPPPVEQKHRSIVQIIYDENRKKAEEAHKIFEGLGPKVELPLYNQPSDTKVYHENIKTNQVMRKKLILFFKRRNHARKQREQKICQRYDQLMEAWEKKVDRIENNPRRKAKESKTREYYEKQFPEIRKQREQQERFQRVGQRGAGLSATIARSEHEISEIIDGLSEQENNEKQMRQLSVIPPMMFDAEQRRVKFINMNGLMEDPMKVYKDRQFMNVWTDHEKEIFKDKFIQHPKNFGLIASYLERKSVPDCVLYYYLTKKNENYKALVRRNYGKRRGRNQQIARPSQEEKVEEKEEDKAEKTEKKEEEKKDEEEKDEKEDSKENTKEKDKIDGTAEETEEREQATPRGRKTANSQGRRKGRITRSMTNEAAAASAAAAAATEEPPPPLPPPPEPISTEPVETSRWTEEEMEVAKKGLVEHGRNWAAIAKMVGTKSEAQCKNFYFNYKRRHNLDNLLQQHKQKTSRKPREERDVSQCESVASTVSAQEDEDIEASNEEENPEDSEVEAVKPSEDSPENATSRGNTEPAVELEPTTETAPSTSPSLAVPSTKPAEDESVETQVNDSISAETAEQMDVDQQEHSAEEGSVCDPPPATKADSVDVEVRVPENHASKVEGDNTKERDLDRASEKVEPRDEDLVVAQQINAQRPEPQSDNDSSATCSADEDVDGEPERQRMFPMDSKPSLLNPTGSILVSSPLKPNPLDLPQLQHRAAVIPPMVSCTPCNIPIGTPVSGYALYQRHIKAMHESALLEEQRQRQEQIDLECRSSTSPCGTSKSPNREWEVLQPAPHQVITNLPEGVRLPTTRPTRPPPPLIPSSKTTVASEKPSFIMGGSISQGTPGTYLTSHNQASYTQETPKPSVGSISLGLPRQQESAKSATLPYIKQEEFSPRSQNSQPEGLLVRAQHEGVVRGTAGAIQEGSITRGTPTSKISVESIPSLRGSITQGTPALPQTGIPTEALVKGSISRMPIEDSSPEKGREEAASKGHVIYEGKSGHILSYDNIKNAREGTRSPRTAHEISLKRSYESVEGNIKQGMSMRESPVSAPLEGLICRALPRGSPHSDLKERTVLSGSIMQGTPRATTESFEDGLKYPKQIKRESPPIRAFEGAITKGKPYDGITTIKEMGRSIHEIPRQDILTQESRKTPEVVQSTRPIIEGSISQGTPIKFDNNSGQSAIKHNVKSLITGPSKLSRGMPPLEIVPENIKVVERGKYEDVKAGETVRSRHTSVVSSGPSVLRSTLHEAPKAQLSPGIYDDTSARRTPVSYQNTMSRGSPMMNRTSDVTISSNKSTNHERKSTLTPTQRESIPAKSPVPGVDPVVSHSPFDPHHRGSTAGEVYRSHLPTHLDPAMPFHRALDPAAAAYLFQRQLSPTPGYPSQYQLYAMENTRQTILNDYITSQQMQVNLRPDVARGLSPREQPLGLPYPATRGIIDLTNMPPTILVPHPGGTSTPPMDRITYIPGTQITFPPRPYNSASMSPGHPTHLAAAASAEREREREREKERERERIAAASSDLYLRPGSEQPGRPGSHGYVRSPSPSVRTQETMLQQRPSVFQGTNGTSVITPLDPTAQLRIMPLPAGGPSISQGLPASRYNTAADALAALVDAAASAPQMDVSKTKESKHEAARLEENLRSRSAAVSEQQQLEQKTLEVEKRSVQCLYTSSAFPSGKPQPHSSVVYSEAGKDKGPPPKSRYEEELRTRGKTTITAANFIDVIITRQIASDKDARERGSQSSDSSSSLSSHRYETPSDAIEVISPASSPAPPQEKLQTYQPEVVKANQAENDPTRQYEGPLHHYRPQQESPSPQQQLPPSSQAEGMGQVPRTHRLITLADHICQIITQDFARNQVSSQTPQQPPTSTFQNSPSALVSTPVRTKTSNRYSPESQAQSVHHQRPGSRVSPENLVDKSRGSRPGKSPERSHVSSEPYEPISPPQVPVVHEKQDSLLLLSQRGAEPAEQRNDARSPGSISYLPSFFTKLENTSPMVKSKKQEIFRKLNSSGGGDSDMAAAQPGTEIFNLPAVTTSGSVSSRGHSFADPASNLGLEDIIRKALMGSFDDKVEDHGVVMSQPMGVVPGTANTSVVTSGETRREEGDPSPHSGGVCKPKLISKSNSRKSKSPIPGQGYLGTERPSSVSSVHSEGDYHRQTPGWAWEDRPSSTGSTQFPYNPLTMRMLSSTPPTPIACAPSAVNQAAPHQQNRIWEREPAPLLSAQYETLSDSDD

Kd: 1400 nM
B1: PPARγ LBD LBD (protein)
chain: DLRALAKHLYDSYIKSFPLTKAKARAILTGKTTDKSPFVIYDMNSLMMGEDKIKFKHITPLQEQSKEVAIRIFQGCQFRSVEAVQEITEYAKSIPGFVNLDLNDQVTLLKYGVHEIIYTMLASLMNKDGVLISEGQGFMTREFLKSLRKPFGDFMEPKFEFAVKFNALELDDSDLAIFIAVIILSGDRPGLLNVKPIEDIQDNLLQALELQLKLNHPESSQLFAKLLQKMTDLRQIVTEHVQLLQVIKKTETDMSLHPLLQEIYKD
